Reference: patent publication US20150361454

Target: Prochlorococcus marinus MED4 aldehyde decarbonylase (MED4_ADC), wild type

B1: Prochlorococcus marinus MED4 acyl-ACP reductase (MED4_AAR), wild type (protein)
chain: MAFGLIGHSTSFEDAKRKASLLGFDHIADGDLDVWCTAPPQLVENVEVKSAIGISIEGSYIDSCFVPEMLSRFKTARRKVLNAMELAQKKGINITALGGFTSIIFENFNLLQHKQIRNTSLEWERFTTGNTHTAWVICRQLEMNAPKIGIDLKSATVAVVGATGDIGSAVCRWLINKTGIGELLLVARQKEPLDSLQKELDGGTIKNLDEALPEADIVVWVASMPKTMEIDANNLKQPCLMIDGGYPKNLDEKFQGNNIHVVKGGIVRFFNDIGWNMMELAEMQNPQREMFACFAEAMILEFEKCHTNFSWGRNNISLEKMEFIGAASVKHGFSAIGLDKHPKVLAV
Q: For B1, which “products detected on coexpression in E. coli (AAR catalytic activity)” value is on record?
A: when only MED4_AAR is expressed in E. coli no products are detected, and when MED4_AAR and ADC are coexpressed in E. coli the only products detected are alkanes
